B1: Gamma-crystallin D, residues 90 to 170; numbered along this chain, P07320 (parent)
chain: IRLYEREDYRGQMIEFTEDCSCLQDRFRFNEIHSLNVLEGSWVLYELSNYRGRQYLLMPGDYRRYQDWGATNARVGSLRRV

Variants of: B1
Assay: abundance fitness (aPCA) (normalised: wild type 0, dead -1); higher = more abundant; growth selection in yeast, the domain comes from the species named
Details: Homo sapiens

Abundance fitness of substitutions, site by site:
A73: Q 0.09 | D 0.104 | P -0.175 | C 0.005 | L 0.067 | E -0.012 | H 0.151 | F -0.173 | Y 0.003 | M 0.156 | G 0.004 | R 0.121 | T 0.126 | N 0.05 | S -0.023 | W 0.123
Q66: H 0.108 | S 0.018 | G 0.038 | D -0.14 | C -0.067 | R -0.06 | V -0.038 | W 0.018 | P -0.016 | F -0.004 | N -0.074 | E -0.022 | K 0.269 | T -0.073 | M -0.048
G69: Q 0.082 | F -0.008 | N -0.011 | R 0.141 | I -0.057 | D -0.105 | T 0.016 | E 0.193 | V 0.105 | L 0.101 | S -0.019 | A 0.038 | P -0.164 | W 0.045 | C 0.084 | M 0.24 | Y 0.037
L78: P -0.708 | W -0.011 | K -1.12 | I 0.061 | S -0.38 | H -0.426 | C 0.157 | G -0.565 | M 0.126 | Q -0.908 | R -0.893 | E -0.873
G76: D -0.068 | R 0.024 | M 0.111 | E 0.008 | Y -0.221 | C -0.287 | H 0.11 | A 0.011 | T -0.109 | K -0.112 | S -0.027 | N -0.125 | W -0.441
D61: H -0.25 | G 0.004 | M -0.008 | Q -0.038 | W -0.237 | N -0.016 | E 0.043 | K -0.096 | T -0.024 | L -0.093 | S -0.027 | V -0.07 | F -0.094 | R -0.109 | I -0.332
T71: H 0.05 | N 0.054 | K -0.003 | G -0.014 | F -0.044 | L 0.04 | M -0.125 | C 0.008 | W 0.001 | I 0.043 | A 0.029 | P -0.049 | Y -0.201 | V -0.103
N72: H -0.083 | L 0.149 | D -0.016 | V 0.065 | Q 0.03 | K -0.065 | G -0.001 | W 0.233 | A -0.08 | Y 0.173 | C -0.078 | I 0.21 | S 0.051 | P 0.03 | M 0.131 | R 0.026 | F 0.118
R64: F 0.04 | P -0.423 | E -0.226 | A -0.019 | V -0.044 | C -0.141 | G -0.017 | N 0.159 | Q -0.031 | Y 0.035 | T 0.063 | K -0.287 | D 0.167 | M -0.11 | W 0.095
W68: F 0.194 | Q -0.355 | K 0.16 | L 0.164 | N -0.117 | R 0.093 | D 0.062 | P -0.067 | Y -0.163 | T 0.149 | M 0.15 | I 0.116 | V 0.087 | A 0.043
Y62: P -0.919 | W 0.026 | N -0.125 | K 0.11 | D -0.904 | L 0.178 | T -0.251 | R 0.229 | S 0.016 | A 0.153 | I -0.061 | H -0.076 | C 0.264 | M 0.096 | G -0.242 | Q -0.301 | F -0.147 | V 0.041 | E -0.401

Source: the Human Domainome abundance scans (Beltran et al. 2025)
